The values that follow come from paper PMC6765115.

Where two headings read alike, the source gives them in different places.

Common to all, as to experiment: EMSA
For data set [1], the target named is T1, C.Csp231I C-ARQ (Cmut) (Citrobacter sp. (Csp231I R-M system), UniProt Q32WH4 1-98, A33G;R34E;Q37A).
T1 sequence: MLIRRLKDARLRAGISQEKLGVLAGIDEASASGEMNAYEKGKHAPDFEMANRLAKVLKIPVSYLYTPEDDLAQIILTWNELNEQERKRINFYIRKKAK

Data set [2] concerns the target T2, C.Csp231I (C protein, WT) (Citrobacter sp. (Csp231I R-M system), UniProt Q32WH4 1-98).
T2 sequence: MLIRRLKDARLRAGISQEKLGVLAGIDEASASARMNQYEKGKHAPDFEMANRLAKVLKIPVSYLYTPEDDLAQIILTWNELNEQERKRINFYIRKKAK

In data set [3] the target is T2, C.Csp231I (C protein, WT). This is another data set of the same source.

B1: racR (176 bp) (dsDNA)
DNA 1: GCGACGCCTAACGCAATTGTCAATAGGCTGTGCCTAATGCAGTAAGGGTAGGGATTGCCTAATGTAATGCGCATAGGAGAATATTAAGCAATGCTTAGTGGTAAAGACTTAGGCCGAGCGATAGAGCAGGCCATTAACAAAAAAATCGCATCGGGATCCGTCAAATCAAAGGCGG
DNA 2: CCGCCTTTGATTTGACGGATCCCGATGCGATTTTTTTGTTAATGGCCTGCTCTATCGCTCGGCCTAAGTCTTTACCACTAAGCATTGCTTAATATTCTCCTATGCGCATTACATTAGGCAATCCCTACCCTTACTGCATTAGGCACAGCCTATTGACAATTGCGTTAGGCGTCGC
For the molecule B1, the binding result is “no binding” in data set [1] and “binds” in data set [2].

B2: racRmut (176 bp) (dsDNA)
DNA 1: GCGACGCCTAACGCAATTGTCAATAGGCTGTGCCTAATGCAGTAAGGGTAGGGATTGCCTAATGTAATGCGCATAGGAGAATATTAAGCAATGCGCATTGGTAAAGACTTAGGCCGAGCGATAGAGCAGGCCATTAACAAAAAAATCGCATCGGGATCCGTCAAATCAAAGGCGG
DNA 2: CCGCCTTTGATTTGACGGATCCCGATGCGATTTTTTTGTTAATGGCCTGCTCTATCGCTCGGCCTAAGTCTTTACCAATGCGCATTGCTTAATATTCTCCTATGCGCATTACATTAGGCAATCCCTACCCTTACTGCATTAGGCACAGCCTATTGACAATTGCGTTAGGCGTCGC
On to B2, for which the binding result in data set [1] and in data set [3] was “no binding” in each case.
